We go through 3 substances from patent EP4782466A1, “FUSION PROTEIN FOR INACTIVATING CORONAVIRUS AND USE THEREOF” (priority 2023, dated 2025).

Common to all, as to assay: cell-based or functional assay
Experiment [1] addresses S protein of SARS-CoV-2 Omicron BA.1 (SARS-CoV-2 BA.1).
Experiment [2] deals with S protein of SARS-CoV-2 Delta (B.1.617.2) (SARS-CoV-2 Delta (B.1.617.2)).
Experiment [3] concerns the target S protein of SARS-CoV-2 Omicron BA.2.75 (SARS-CoV-2 BA.2.75).
Experiment [4] deals with S protein of SARS-CoV-2 Omicron BA.5 (SARS-CoV-2 BA.5).
Experiment [5] has as its target S protein of SARS-CoV-2 Gamma (P.1) (SARS-CoV-2 Gamma (P.1)).
The target of experiment [6] is S protein of SARS-CoV-2 Omicron BF.7 (SARS-CoV-2 BF.7).
In experiment [7] the target is S protein of SARS-CoV-2 Omicron BA.2 (SARS-CoV-2 BA.2).
For experiment [8], the target named is S protein of SARS-CoV-2 Lambda (SARS-CoV-2 Lambda).
Experiment [9] deals with S protein of SARS-CoV-2 Omicron BA.2.2 (SARS-CoV-2 BA.2.2).
The target of experiment [10] is S protein of SARS-CoV-2 Omicron BA.2.12.1 (SARS-CoV-2 BA.2.12.1).
The target in experiment [11] is S protein of SARS-CoV-2 Alpha (B.1.1.7) (SARS-CoV-2 Alpha (B.1.1.7)).
Experiment [12] deals with S protein of SARS-CoV-2 Omicron XBB (SARS-CoV-2 XBB).
Experiment [13] concerns the target S protein of SARS-CoV-2 Omicron BA.4.6 (SARS-CoV-2 BA.4.6).
Experiment [14] addresses S protein of SARS-CoV-2 Omicron BA.3 (SARS-CoV-2 BA.3).
In experiment [15] the target is S protein of SARS-CoV-2 Omicron BA.2.9 (SARS-CoV-2 BA.2.9).
Experiment [16] has as its target S protein of SARS-CoV-2 Beta (B.1.351) (SARS-CoV-2 Beta (B.1.351)).
For experiment [17], the target named is S protein of SARS-CoV-2 Omicron BQ.1 (SARS-CoV-2 BQ.1).

As for “AL6E protein (ACE2-linker-EK1 fusion protein with (GGGGS)6 linker)”, the IC50, inhibition of pseudovirus infection (Caco-2, luciferase) in [1] came out at 0.11 nM; in [2] it was 0.31 nM; in experiment [3] it was 1.4 nM; in [4], 0.13 nM; in experiment [5] it was 0.28 nM; in experiment [6] it was 1.01 nM. Also, the IC50, inhibition of pseudovirus infection (Caco-2, luciferase) was 0.21 nM in experiment [7]; 0.07 nM in experiment [8]; 0.24 nM in experiment [9]; 0.17 nM in [10]; 0.25 nM in experiment [11]; 0.23 nM in experiment [12]. For the same substance, the IC50, inhibition of pseudovirus infection (Caco-2, luciferase) in experiment [13] was determined as 1.96 nM; in [14] it was 0.27 nM; in experiment [15], 0.09 nM; in [16] it was 0.25 nM; in experiment [17] it was 0.86 nM.

“AL7E protein (ACE2-linker-EK1 fusion protein with (GGGGS)7 linker)”: the IC50, inhibition of pseudovirus infection (Caco-2, luciferase) amounted to 0.14 nM in experiment [1]; 0.31 nM in experiment [2]; 1.04 nM in experiment [3]; 0.31 nM in experiment [4]; 0.25 nM in experiment [5]; 0.93 nM in experiment [6]. Also, the IC50, inhibition of pseudovirus infection (Caco-2, luciferase) in experiment [7] was determined as 0.12 nM; in experiment [8], 0.27 nM; in [9] it was 0.28 nM; in experiment [10], 0.23 nM; in [11], 0.21 nM; in experiment [12], 0.94 nM. Further, the IC50, inhibition of pseudovirus infection (Caco-2, luciferase) in experiment [13] stood at 0.56 nM; in experiment [14] it was 0.11 nM; in experiment [15], 0.21 nM; in experiment [16], 0.24 nM; in experiment [17] it was 1.14 nM.

Regarding EK1 polypeptide, the IC50, inhibition of pseudovirus infection (Caco-2, luciferase) in [1] amounted to 70.5 nM; in [2], 150 nM; in experiment [3] it was 331 nM; in experiment [4], 568 nM; in experiment [5], 277 nM; in [6] it was 584 nM. In addition, the IC50, inhibition of pseudovirus infection (Caco-2, luciferase) in experiment [7] stood at 297 nM; in experiment [8], 995 nM; in experiment [9], 162 nM; in experiment [10], 342 nM; in experiment [11], 268 nM; in experiment [12] it was 233 nM. The IC50, inhibition of pseudovirus infection (Caco-2, luciferase) in experiment [13] is 473 nM; in experiment [14], 136 nM; in experiment [15], 199 nM; in [16], 257 nM; in experiment [17], 136 nM.
